System: CC(=O)N[C@H]1[C@H](Oc2ccc([N+](=O)[O-])cc2)O[C@H](CO)[C@@H](O)[C@@H]1O
Assay: p-nitrophenol release, A405, non-linear regression
Type: biochemical, Bifidobacterium longum subsp. infantis
Conditions: pH 5.0, 37 °C, 50 mM Na2HPO4, apparent kinetics

Row | Substance | Km | kcat | kcat/Km
1 | Blon_0459 (Bifidobacterium longum subsp. infantis ATCC 15697 = JCM 1222 = DSM 20088) | 330 ± 40 µM |  | 
2 | Blon_0732 (Bifidobacterium longum subsp. infantis ATCC 15697 = JCM 1222 = DSM 20088) | 1640 ± 850 µM | 104 ± 46.2 s⁻¹ | 65000 ± 543 M⁻¹ s⁻¹
3 | Blon_2355 (Bifidobacterium longum subsp. infantis ATCC 15697 = JCM 1222 = DSM 20088) | 480 ± 20 µM |  | 

Reference: PMC7568402
